Source: article PMC8964682, “Structural and biochemical characterization of in vivo assembled Lactococcus lactis CRISPR-Csm complex” (Communications Biology, 2022)

B1: Lactococcus lactis Csm3 Asp30Ala, subunit of the LlCsm (D14N)1(D30A)3 complex (natural protein)
chain: MKLVIEGTIVLKTGMHIGGSSDFSAIGAVASPVVRDTLTRLPLIPGSSLKGKMRYLLAKELNNGILLNEPNNDQDEILRLFGSSEKDKIRRARLKFNDIKLSNLAELETFNVSSTEVKFENTINRKTAVANPRQIERVIAGSKFDFEIFYNLDDIKEVEKDFENIKQGFDLLEFDYLGGHGTRGSGRIAFENLSVITAVGNFEKINTLNEILGA
notes: Csm3 of the plasmid-encoded (pKLM) Type III-A CRISPR-Cas system of Lactococcus lactis, with the RNase-site mutation D30A; Csm3.1 is the Csm3 copy closest to Csm4; There are four copies in CTR-43, NTR and apo, and three in CTR-32; also called Csm3.1; Csm3.2
B2: Lactococcus lactis Csm2 with N-terminal His6-tag, subunit of the LlCsm complex (natural protein)
chain: TELKIGNEKVNSTNFGDFAEKAIRGINHKPFVNSKGGEQKITTSKIRGILELVNKVYNRVINTNDVELSENILADIAYIKVKIAYESGREPVVKDFIQRTAFTAAITDVMNQRTRESFLLFARYVESLIAYFKFYGGKD
notes: Csm2 of the plasmid-encoded (pKLM) Type III-A CRISPR-Cas system of Lactococcus lactis; The csm2 gene encoded the His6-tag in all variants of LlCsm (wild type and Csm1 D14N / Csm3 D30A); Removal of the tag is not mentioned; also called LlCsm2; not shown: His6, N-terminal, kept

Tests used:
[1] = target: the molecule itself; test: cryo-EM structure; co-purified LlCsm (Csm1 D14N, Csm3 D30A)-crRNA incubated with NTR at 1:2, 37 °C, 60 min, then SEC; 3.4 Å
[2] = target: the molecule itself; test: cryo-EM structure; co-purified LlCsm (Csm1 D14N, Csm3 D30A)-crRNA incubated with CTR at 1:2, 37 °C, 60 min, then SEC; no ATP; two classes, CTR-43 (3.0 Å) and CTR-32 (3.3 Å)

| Protein | stoichiometry N [1] | stoichiometry N [2] |
| --- | --- | --- |
| B1 | 4 | 3 |
| B2 | 3 | 2 |
